Test: soluble fraction after stress (log2 fold change); higher = more stays soluble; pooled small domains, quantitative proteomics
Settings: stress: 75 degC
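Note: 20 min heating vs room temperature control held 20 min.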

| Sequence | soluble fraction (log2) |
| --- | --- |
| HMSPIKAGDLVKITGTKYYRGQTIPSWVKAKNWFVHSVSGDRAVINKSEDGKNAIMSPVKVSNLALVT | 0.0902 |
| HMSPILTPDQATKAYGKDGVLYIHSNKERTIYIYDVTGRTVRILEAVEGENQINGLEKGIYFLEGQKVAV | -1.36 |
| HMSPLQLGNYNTLRITRFTDHGAYLDGGDVGEILMPKTYVLPEMKPGDEVRVFVYLDQEERLVGTTET | -0.622 |
| HMSPPVIQQGQDVRLIYKGTGFAVSNEGKALNTAADGQVARARTGGGQTVSGIARPGGIIEIT | 0.391 |
| HMSPQPPNQEAVRTRILDQAAHLFLTIGYAETTVRRIAGAVGIKAASLYHHFGSKDEVFESILIR | 0.274 |
| HMSPRADRSVNLDVGETVQIDDWGADGTAQIRYRGAPWTAVLRPGHTPHPGPHRVIELVGSRLLVEP | 0.0352 |
| HMSPRAIYVTTSDLNMRMQPSPNAYKRGVAPRGTELLVVEWGDDWSKVIFEGDTAYAASRYLSYVKDEP | -1.74 |
| HMSQDEVVADMKADLGPDADNIIRSNIQWADGLVRKGILTESEREELDVMGGTPEAQRILVKLRTMQG | 0.178 |
| HMSQDTLIENGKVFLIHKVVAGQTLYGLSKAYNITIEDIIKYNPQAENGIKIGEDIKIFLKEE | -0.924 |
| HMSQEHTVPDYKDMEATVVYADLTQKGLNYEIAQETSPTIKEGNVTQTIPGMNEKVVSGDTITVFVSTGTG | 0.431 |
| HMSQIDLQIGHKIKSKRRKLGISQADMAKKLYISPSYLNLIESGKRKINVDLLLKLSNELGIEMSDIS | -1.97 |
| HMSQIILSARSGHAALRHRLGELGYTFADKEFDDIYERFLEVADQKKEVYDEDLESIVQERQRD | 0.00498 |
| HMSQITEADYIPNTDKTWGELMEETGESLPNLVERYNNEMTKSNGKEQPQSIIQRIIEDYQMVS | 0.253 |
| HMSQLSDEQELRDIARGIIEGNPNEAEKYRAGRTGLLGFFVGKLMAETEGKANPRLASRILKELLE | -0.144 |
| HMSQLSQIVDAFGGLRPFARALNKPPSTVQYWIEKGGIPASVVSPIMKLSEEKGLGLSRDQVSAAVS | 0.441 |
| HMSQLTVGTVVTGNASLQTQGLKLPSFASGSRPASPNIGQMIWNSSDAKAQIWNGSEWDDVG | -0.0784 |
| HMSQNVSFTVDSGQAGLRLDVFLSQADPAFSRSQIKYAIEEGDVTVNGKEPKVSQHLKDGDIVELHLE | 0.0493 |
| HMSQQEAQLNSLVKIYESMKPKDAARIFDTLDMDVLLDVVMRMKEARSAAVLAEMTPDRAKEVTLQLAD | -0.912 |
| HMSQTDQALRHLIREAWATLPQRQQQAVELAYYEGLPDTEIAARLNQPVEEVKTSIVLGMAHLREALHSY | -0.811 |
| HMSQTDTDAKDARQKILALLSDGEWHQKTELLKIDAPKEAVSNAIRYLVLEELISIDHAKVRA | -0.447 |
| HMSQTVKYVNTTSGLNMRTGPATSYAKITTIAYGQSVNVLSTSNGWSKINYSGSTGYVSSQYLQSKKPS | -2.77 |
| HMSQVHYAVLFKNASAAEATEIVTYARETLGVQDIKINANGDILVPEDKVEEMRVSMSIAGFPK | 0.23 |
| HMSQVSTKYINVSSAYVRSKPSKDGEIVTSLIKNTDVTVTGENGDWYKIKFNNYEGYIFKELLSDSKLEE | -0.442 |
| HMSRAMFEMHADWQPTDSIRGLLGRAGLPTDIAKLDQSRIGDFVNHWFGKPDRNTADSWNGLLVGWLKRTQ | -1.18 |
| HMSREEFLAGLEEALAGEVPASVIRENLNYYNSYISQEMAKGRTVDEIVDEIGEPRIVARTIIDSSEAAGE | 0.319 |
| HMSRELVILGNSMLNNALKAFHVSPASIKKKHWDKLILDYHLESKNNILIDIALGKRINVMVAHQLTSIID | 0.408 |

| Sequence | soluble fraction (log2) |
| --- | --- |
| HMSREVTVPPLSGLTLRDAARTLAERGLLMEAEGQGAVHRQDPPAGTRVPTGTPVRVFLTLPEQNS | 0.842 |
| HMSRGTLFVDVRGAVAKPGVYELPEKSRVFQAVEAAGGLLPEALERLVNQAAELTDGQQVYIPFEGEE | 0.405 |
| HMSRLLRTDAHLQYAAERGLPVTASAYTPVFAGAKQYTGRIESFDAQTIRFADGPAVERKAVARLEAE | 0.104 |
| HMSRLLTTRQREVFEVATREGFWDVPRRINLSELAKVLGVAKSTLSSQLQRIESAVFHAFTDEIRRQS | -2.09 |
| HMSRMLTVKQREVFDLAMREGYWETPRRITLTMLASLLSVSKSTLSVQLHKIEGTVLSSFSDEVRRRS | -1.87 |
| HMSRQDYLQTIYRLSVGKGYTTNKKIADFLSVSKPSVTEMIGKLQGEGLVAMDGAHIFLTEDGAEQ | -0.595 |
| HMSRVTVDVNPDVLQWAIDKKGKGDIKNKFPKIDEWLNGISKPTIHQLENFAKYVSVPFGYLLLSKPPVE | 0.208 |
| HMSRYQDIANDIEKDIIEKKYTRKLPEQFELAQKYQTSRVTIVHALKILQNKKLIRTVKGHGTFITS | -1.84 |
| HMSSDEDELESIIKRVFADNPIELERLQNGEDKLIKFFMGLVMRQTKGKYPPKIIIDLLNKS | -0.599 |
| HMSSDLDQYMKNIRKQHNLSKREFAKQLGISAATIVRIENGITVSPSKNLISKLAYYLQKSEVEILQDIQS | -1.16 |
| HMSSEMATLRSIVDNKQAEKVHGMMVDMFTASAMVQVYDKVNDENQAKMREMLKTQKGFQRMADFALSKI | -0.143 |
| HMSSEPASLVGKTGVAASVLRPSGRVEVNGEYYDAVSINGFIEKGESVFVHKYENAQLYVSKNSE | 0.162 |
| HMSSESIKTDKNVGVGSTLEELEKAYGSDYTLSGKMYRYYQDDNSKYMYFFILNDVVQYYGYGIDV | -1.65 |
| HMSSIDLTARSGRAALKHRLSLLGYEFSKIELETLYVRFIELADEKKLLHDEDLIELVKEKN | -3.12 |
| HMSSIRDVVPEGLLSDREKLVLVLAFDRDLDGPDMARTLGISANTVRVLKARALKKLRQAGIQP | -0.954 |
| HMSSIVLTARSGRAALAYRVKSIGVDLSKDQLDLVYKTFLGFADKKKEIIDTDIPQILKASGI | -2.74 |
| HMSSIYVYPNPTANRIYIQADNIKKAELFDLMGRKVRSTNQPQIDISRLSRGNYILQVKTQNNTQSFKIIK | -0.705 |
| HMSSKAVLEKFEALFIDQMLQSMRKATVRSELFDSEGIKLYESLFDKEISEELAKSGGLGLTKDLEQQL | -1.36 |
| HMSSKFKIVGEILSIKKSDILYIIEILSNNEVVKATAVEDEIKDLKIGDKILLSSKAFNPIVNK | -2.29 |
| HMSSLTDNFVKALSYYLALSGKSKKEVADGIGIPPTTFSSWSNGKHLPDMDRLQNLATYLGAPVSEFFDFT | 0.238 |
| HMSSPVGIAQATTYVYVRAGHSMQAAKVGVLSPGEKVGVTGRSAQGFSEVVYNGVHRWVGSRYLSPT | -4.43 |
| HMSSQWWYSAGGERKGPVDFATLRGLYVQGAIDGRTLAWREDMQGWEAVNDIPDLEPLRRAVPPEL | -0.0747 |
| HMSSRSLSYSDFIERVDAGQVSKVVMDGERLVVVGQDGTSYVTIKPPGDQVTENLSRELISKGVEVEAEPQ | -0.0305 |
| HMSSRSLTYSDFIERVDAGQVDAVTLDGERIVIRAKDGNTYVAIKPQGEDVTGSLTRDLIAKGVDVEAEPQ | 0.204 |
| HMSSSDYDVYNKAINLMLNLLKEPKSIEEVTASLNITKSQAITWINRALNEGKIIKTNRPVRYVVNN | -1.39 |
| HMSSSYMVRITTSVLNVRKGPGTNYGITTKVKKGEVYTIVAEEKNGNTTWGKLKSGTGYISLGYTER | -1.21 |

| Sequence | soluble fraction (log2) |
| --- | --- |
| HMSSSYVYGGNGEIVILSDVSKHLNVYNLNGQKVTDVNLTAGELQRISIATGIYVVGGKKIVV | -3.52 |
| HMSSVGELEVGNIFEGTVNSVRGGKVLLALGNGQMVLAQMDGRVNITPGSSMFFQVKSNDGETVAIRPYTG | -0.247 |
| HMSSWAEGLTERERHTLMWITKGLSNKLIARELGISDSTVKVYVKNLLRKLNVNSRLELAAWVHTHPL | -1.2 |
| HMSSYTQEDVRSGILYMAQLKPRNIEEFVSTLAFSKDDIMDNLSFLVDEGFLKFDADTDTYFNPVPL | -0.374 |
| HMSTADGGYPSIVINDGRVIDTNLQKLGLDRSWLSAELKRQGKGSEKDIFLMTVNQRREVYISVKEA | -1.89 |
| HMSTEAFLGTEGEVVLPLLPDGLGKIRLHVADQDVELPARTGGEPIQIRERVVVVRFRDGIAEVEPAP | 0.0378 |
| HMSTEDYLKTIYILESQQGVHGSDVARMLKVTRPTVSIALKALEQEGYVWMDESRLVHLTDSGLQIAKDT | -0.914 |
| HMSTESAHLGERMLNQALRAMHIEPDQITEAHWQKLIRDYGLKKKSEILTDIGLGKRQNVMVAHQLLAMG | -0.539 |
| HMSTFKSYRGKITASSGVNIRTGAGTNYNKNGALTYNSVVTIVDEKKVSGTTWGKLADGRGWISLDYLKK | -2.04 |
| HMSTGGDLTQRERELLGLMARGLSNQEISKRLTIAMPTVKFHVTNILAKLHADNRTEAVLVALKNKLVAL | -1.02 |
| HMSTINGIEKYLSSGLIPYIGPKTAKRIVEKFGLDTLEIIQYNPERLKEIEGIGDKKLKKIVEAFEEQG | -0.245 |
| HMSTISPNAFNFLQQNLNKFSDDAEGKMIKDILSKTTYDEYVKNEKSKTDFNSLLRRQTTTGDDNLNRYIN | -0.00511 |
| HMSTKEFTIHAGEWSYRVSQKLENLGLVSDAKKFDQYLEDNGYSSKIKIGHYTISKDADFEEIAKEIT | 0.632 |
| HMSTKRGEILEFLKDFSARKGYAPSVREIMQAVGLKSTASVHYHLSELHKAGLITVDGTKNRAISLA | -1.11 |
| HMSTMKSKWFVSSNPIAGVMKYQAQRKKDVNAVDSSENREASGQWYTDKEEAQAIVDKLNAEEQIKEAGK | -0.0426 |
| HMSTMLPFVMRELVELVMKKKALPLGDALYYIYSSKLYKSLLDKSTKLWYSSTLSLYETLEKEKTEEKRRY | -2.04 |
| HMSTMTDAQRHLFANKLSQLPEMGKYSHGTESYQQFAVRIAEMLQTPKKFKELYPYLQKVGFKA | -0.379 |
| HMSTNYVQVLRAALNGVSGRKLAQQYRVSRDTVAILLRQAKIQGWQRAEDLENITEEDLVALLSG | -2.43 |
| HMSTPLPTGLPRGTIIEYTVQTDETLAIIAAKFNSTVDDIMTRNKITDPNTIYAGQILKVAINLVTP | -1.62 |
| HMSTPVPIEGQPTENLNLRDQPSTSGKILTTIPKGKTVTILSEKNANGWYKVSYNGKTGYVSGSYFKVTK | 0.916 |
| HMSTSERLKQVMEVKGFNLKTFSEQADIPYRTLQNYILTNREPSAESLAKLHSQLGINLNWLMSGKGEMF | -0.685 |
| HMSTSIADNSSITYKVRKGDSLASIAKRHGVNINDVMRWNSVITKASQIQPGDMLTLYVRDS | 0.148 |
| HMSTTALLEKMVRYIRTLPVISQVVLSLHYYRGMELREIASELDITESRASQLHTTAVLGIRDLLSSY | -3.11 |
| HMSTTGIVKWFNEEKGFGFITQDQGGADVFVHYRAIASEGFKTLAEGQKVSFEVEQGQKGLQAANVQA | 0.333 |
